Biological target: Nogo receptor (NgR)
Test: cell-based or functional assay

Binder | neurite outgrowth of cerebellar neurons on MAG-expressing CHO cells, peptide at 15 uM (FIG. 4) [fold]
AAARDTVQCLCVVKSNPEPSVAFELPSRNV [MAG peptide MAG(422-451)] | 2
VAFELPSRNVTVNETEREFVYSERSGLLLT [MAG peptide MAG(442-471)] | 2

— US20040121341A1 (RESEARCH FOUNDATION OF CITY UNIVERSITY OF NEW YORK, published 2004)
